Data reported in patent US9695189B2, “Chemical crosslinkers and compositions thereof” (priority 2013, dated 2017).

Assay: Cleavage of conjugate in potassium phosphate buffer and rat serum
Type: in vitro ADME
Details: potassium phosphate buffer pH 7.4 and rat serum (1:1), 37° C., overnight incubation
Procedure: A mixture of compound (26) (2.9 mg) in potassium phosphate buffer (1.0 mL, pH 7.4) and rat serum (1.0 mL, Aleken Biologicals) was incubated at 37° C.

Substance: L-glutathione N^2-CBZ-lysine conjugate [Compound 26]
- Cleavage (hydrolysis) of conjugate releasing N^2-(carbobenzyloxy)-L-lysine: hydrolysis of compound (26) to yield N^2-(carbobenzyloxy)-L-lysine was observed
